Patent publication US20190345230A1
Residue numbers refer to the chain shown, from its start.

B1: monoclonal antibody 7G6 (antibody, V domains shown)
VH: EVQLQQSGPELVKPGASVKISCKASGYTFTDYNMHWVKQSLGKSLEWIGYIYPNNGGTGYNQKFESKATLTVDNSSSTAYMELRTLTSEDSAVYYCVRSGAYYFNYLVPYFDYWGQGTTLTVSS
VL: NIVLTQSPASLAVSLGQRATISCRASESVDIYGNSFMHWYQQKPGQPPKLLIYLASKLECGVCARFNGSGCRTDFTLAIDPVEGDDGATYYCQQNYEDPWTFGGGTKLEIK
B2: monoclonal antibody 11B10 (antibody, V domains shown)
VH: B1 VH with D31G, L41H, Y50K, G57V, K63E, E65R, T85S, V93I, Y95F, F104V
VL: B1 VL with L15P, V29I, Q42K, L54R, K57N, C60S, C63P, C71S, A78T
B3: monoclonal antibody 12G6 (antibody, V domains shown)
VH: EVHLQQSGPELVKPGASVKMSCEASGYTFTDYYVAWVKQSPGESFEWIGRVNPYSGGTSYNQKFKGKATLIVDKSSSTAYMELSSLTSEDSAVYYCARWDYGVYEGYIDYWGQGSALTV
VL: DIQMTQSPASLSVSVGETVTITCRASEKIYSNLAWYQQKEGKSPQLLVYAAIRLADGVPSRFSGSGSGTQFSLKINSLQSEDFGTYYCQHFWGTPLTFGAGTKLELK

These binders were tested against HA protein of influenza B virus B/Xiamen/N678/2012 (Victoria lineage) (Influenza B virus B/Xiamen/N678/2012) (assay: cell-based or functional assay).

Row | Binder | HI titer (dilution fold) | Neutralization titer
1 | B1 | 6400 | 6400 titer
2 | B2 | 400 | 400 titer
3 | B3 | < 100 | 1600 titer

The binders below were run against HA protein of influenza B virus B/Lee/1940 (Influenza B virus B/Lee/1940) (UniProt P03460) (assay: cell-based or functional assay).

Row | Binder | HI titer (dilution fold) | Neutralization titer
4 | B1 | 1600 | 1600 titer
5 | B2 | < 100 | < 100 titer
6 | B3 | 6400 | 6400 titer

What follows are binders tested against HA protein of influenza B virus B/Hong Kong/330/2001 (Victoria lineage) (Influenza B virus B/Hong Kong/330/2001) (assay: cell-based or functional assay).

Row | Binder | HI titer (dilution fold) | Neutralization titer
7 | B1 | > 25600 | > 25600 titer
8 | B2 | 800 | > 25600 titer
9 | B3 | 3200 | > 25600 titer

Each binder was assayed against HA protein of influenza B virus B/Xiamen/3043/2006 (Victoria lineage) (Influenza B virus B/Xiamen/3043/2006) (assay: cell-based or functional assay).

Row | Binder | HI titer (dilution fold) | Neutralization titer
10 | B1 | 12800 | 12800 titer
11 | B2 | 6400 | 6400 titer
12 | B3 | < 100 | 3200 titer

Each binder was assayed against HA protein of influenza B virus B/Great Lakes/1739/1954 (Influenza B virus B/Great Lakes/1739/1954) (assay: cell-based or functional assay).

Row | Binder | HI titer (dilution fold) | Neutralization titer
13 | B1 | < 100 | < 100 titer
14 | B2 | < 100 | < 100 titer
15 | B3 | 1600 | > 25600 titer

Each binder was assayed against HA protein of influenza B virus B/Xiamen/N697/2012 (Yamagata lineage) (Influenza B virus B/Xiamen/N697/2012) (assay: cell-based or functional assay).

Row | Binder | HI titer (dilution fold) | Neutralization titer
16 | B1 | > 25600 | > 25600 titer
17 | B2 | 800 | 800 titer
18 | B3 | < 100 | 800 titer

What follows are binders tested against HA protein of influenza B virus B/Harbin/7/1994 (Yamagata lineage) (Influenza B virus B/Harbin/7/1994) (assay: cell-based or functional assay).

Row | Binder | HI titer (dilution fold) | Neutralization titer
19 | B1 | < 100 | < 100 titer
20 | B2 | < 100 | < 100 titer
21 | B3 | 200 | 3200 titer

These binders were tested against HA protein of influenza B virus B/Taiwan/2/1962 (Influenza B virus B/Taiwan/2/1962) (assay: cell-based or functional assay).

Row | Binder | HI titer (dilution fold) | Neutralization titer
22 | B1 | 12800 | 12800 titer
23 | B2 | 800 | 800 titer
24 | B3 | < 100 | 1600 titer

What follows are binders tested against HA protein of influenza B virus B/Xiamen/165/2007 (Victoria lineage) (Influenza B virus B/Xiamen/165/2007) (assay: cell-based or functional assay).

Row | Binder | HI titer (dilution fold) | Neutralization titer
25 | B1 | 12800 | 12800 titer
26 | B2 | 3200 | 3200 titer
27 | B3 | < 100 | 6400 titer

The binders below were run against HA protein of influenza B virus B/Xiamen/891/2006 (Yamagata lineage) (Influenza B virus B/Xiamen/891/2006) (assay: cell-based or functional assay).

Row | Binder | HI titer (dilution fold) | Neutralization titer
28 | B1 | > 25600 | > 25600 titer
29 | B2 | 800 | 800 titer
30 | B3 | < 100 | 1600 titer

The binders below were run against HA protein of influenza B virus B/Malaysia/2506/2004 (Victoria lineage) (Influenza B virus B/Malaysia/2506/2004) (assay: cell-based or functional assay).

Row | Binder | HI titer (dilution fold) | Neutralization titer
31 | B1 | 6400 | > 25600 titer
32 | B2 | 3200 | > 25600 titer
33 | B3 | 3200 | 12800 titer

What follows are binders tested against HA protein of influenza A virus A/Brisbane/10/2007 (seasonal H3N2) (Influenza A virus A/Brisbane/10/2007 (H3N2)) (assay: cell-based or functional assay).

Row | Binder | HI titer (dilution fold) | Neutralization titer
34 | B1 | < 100 | < 100 titer
35 | B2 | < 100 | < 100 titer
36 | B3 | < 100 | < 100 titer

Each binder was assayed against HA protein of influenza B virus B/Brisbane/60/2008 (Victoria lineage) (Influenza B virus B/Brisbane/60/2008) (assay: cell-based or functional assay).

Row | Binder | HI titer (dilution fold) | Neutralization titer
37 | B1 | 3200 | 12800 titer
38 | B2 | < 100 | 3200 titer
39 | B3 | 3200 | > 25600 titer

Each binder was assayed against HA protein of B/Xiamen/1346/2008 (Victoria lineage) (Influenza B virus B/Xiamen/1346/2008 (Victoria lineage)) (UniProt P22092) (assay: cell-based or functional assay).

Row | Binder | HI titer (dilution fold) | Neutralization titer
40 | B1 | 6400 | 6400 titer
41 | B2 | 3200 | 3200 titer
42 | B3 | < 100 | 3200 titer

These binders were tested against HA protein of influenza B virus B/Maryland/1/1959 (Influenza B virus B/Maryland/1/1959) (UniProt P03461) (assay: cell-based or functional assay).

Row | Binder | HI titer (dilution fold) | Neutralization titer
43 | B1 | 6400 | 800 titer
44 | B2 | < 100 | < 100 titer
45 | B3 | < 100 | 3200 titer

These binders were tested against HA protein of influenza B virus B/Xiamen/N639/2010 (Victoria lineage) (Influenza B virus B/Xiamen/N639/2010) (assay: cell-based or functional assay).

Row | Binder | HI titer (dilution fold) | Neutralization titer
46 | B1 | 3200 | 3200 titer
47 | B2 | 400 | 400 titer
48 | B3 | < 100 | 3200 titer

Each binder was assayed against HA protein of influenza B virus B/Xiamen/756/2007 (Yamagata lineage) (Influenza B virus B/Xiamen/756/2007) (assay: cell-based or functional assay).

Row | Binder | HI titer (dilution fold) | Neutralization titer
49 | B1 | 12800 | 12800 titer
50 | B2 | 400 | 400 titer
51 | B3 | < 100 | 1600 titer

These binders were tested against HA protein of influenza B virus B/Brisbane/33/2008 (Victoria lineage) (Influenza B virus B/Brisbane/33/2008) (assay: cell-based or functional assay).

Row | Binder | HI titer (dilution fold) | Neutralization titer
52 | B1 | 3200 | > 25600 titer
53 | B2 | < 100 | 800 titer
54 | B3 | 3200 | > 25600 titer

What follows are binders tested against HA protein of influenza B virus B/Florida/4/2006 (Yamagata lineage) (Influenza B virus B/Florida/4/2006) (assay: cell-based or functional assay).

Row | Binder | HI titer (dilution fold) | Neutralization titer
55 | B1 | > 25600 | > 25600 titer
56 | B2 | 400 | 6400 titer
57 | B3 | 12800 | > 25600 titer

The binders below were run against HA protein of B/Singapore/3/1964 (Influenza B virus B/Singapore/3/1964) (UniProt P03464) (assay: cell-based or functional assay).

Row | Binder | HI titer (dilution fold) | Neutralization titer
58 | B1 | 3200 | > 25600 titer
59 | B2 | < 100 | 800 titer
60 | B3 | 400 | 6400 titer

These binders were tested against HA protein of influenza B virus B/Xiamen/1147/2008 (Yamagata lineage) (Influenza B virus B/Xiamen/1147/2008) (assay: cell-based or functional assay).

Row | Binder | HI titer (dilution fold) | Neutralization titer
61 | B1 | > 25600 | > 25600 titer
62 | B2 | 800 | 800 titer
63 | B3 | < 100 | 1600 titer
